Experimental data reported in publication PMC12626770 (Protein Science : A Publication of the Protein Society, 2025).

Target: T1, Human transferrin receptor 1 (TfR), avi-tagged, biotinylated (human, UniProt P02786 101-760)
T1 construct: also called biotinylated TfR
Assay: flow cytometry on cells; yeast surface display titration; varied TfR concentration, normalized MFU fitted non-linearly, averaged from three experiments; apparent Kd
Conditions: one partner purified

T1 sequence (P02786 101-760): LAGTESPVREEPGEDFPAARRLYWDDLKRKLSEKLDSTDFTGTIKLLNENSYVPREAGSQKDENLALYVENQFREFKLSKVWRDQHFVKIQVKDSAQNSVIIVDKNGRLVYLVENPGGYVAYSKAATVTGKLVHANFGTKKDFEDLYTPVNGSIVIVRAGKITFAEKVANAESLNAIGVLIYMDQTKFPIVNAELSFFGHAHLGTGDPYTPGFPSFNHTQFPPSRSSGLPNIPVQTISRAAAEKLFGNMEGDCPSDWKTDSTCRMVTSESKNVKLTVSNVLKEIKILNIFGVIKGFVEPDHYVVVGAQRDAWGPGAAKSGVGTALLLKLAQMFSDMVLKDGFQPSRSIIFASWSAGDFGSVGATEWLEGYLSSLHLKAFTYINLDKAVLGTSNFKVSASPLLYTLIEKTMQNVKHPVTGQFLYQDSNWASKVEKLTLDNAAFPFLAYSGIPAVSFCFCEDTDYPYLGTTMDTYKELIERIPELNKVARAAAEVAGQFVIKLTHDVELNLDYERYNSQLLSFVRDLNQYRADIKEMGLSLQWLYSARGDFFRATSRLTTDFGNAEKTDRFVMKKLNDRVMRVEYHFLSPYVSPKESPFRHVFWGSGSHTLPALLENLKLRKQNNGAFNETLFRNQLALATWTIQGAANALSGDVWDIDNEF

B1: TB14.3A T78I (S4.4), yeast surface displayed (designed binder)
chain: MEKRFYVLLIIVEDRKKAYRQVNELLHNFSEYILLRMGQDHRERYQSTIALVLKVDNDAIGALSGKLGQISGVKVMTIPEKRGSLE
modifications: biotinylated
B1 was tested, and the Kd was 305 ± 55 nM.
